{
  "source": "paper PMC12508155",
  "about": "(Nature Communications, 2025)",
  "key": {"[1]": {"test_system": "Gd-II riboswitch (guanidine class II riboswitch) (RNA, riboswitch) GCCCUAGGGACGACCCUAGAAGGCCAAGCAACCUGCGGGACGACCCGC", "test": "in-line probing", "conditions": "100 mM KCl, 20 mM MgCl2, 50 mM Tris-HCl pH 8.3, 25 °C, 40 h; for apparent KD: Hill fit, two binding sites"}, "MgdL": {"molecular_target": "T1, MgdL (Vreelandella boliviensis, UniProt A0A265DXW6)", "T1 construct": "gene CE457_11615; full length, N-terminal 6xHis tag with TEV site (cleavage not mentioned), expressed in E. coli BL21", "T1 sequence (A0A265DXW6 1-250)": "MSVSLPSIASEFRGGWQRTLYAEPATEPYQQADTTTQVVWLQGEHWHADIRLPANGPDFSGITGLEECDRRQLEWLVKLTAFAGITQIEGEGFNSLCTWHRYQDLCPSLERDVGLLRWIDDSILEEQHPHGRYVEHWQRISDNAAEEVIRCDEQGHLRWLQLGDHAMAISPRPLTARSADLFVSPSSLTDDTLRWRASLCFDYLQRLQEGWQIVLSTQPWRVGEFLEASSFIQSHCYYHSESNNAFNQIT", "test": "LC-MS time course, coupled with MgdH", "type": "biochemical", "conditions": "N-(hydroxymethyl)guanidine formed in situ by MgdH from 0.5 mM methylguanidine with 5 mM 2-OG; MgdL 20 µg/mL"}, "[2]": {"substrate": "CN(C)C(=N)N", "test": "oxygen consumption, Clark-type electrode", "type": "biochemical, Vreelandella boliviensis", "conditions": "2-OG 5 mM, Fe(II), ascorbate, MOPS pH 7.2, 30 °C"}, "[3]": {"substrate": "CNC(=N)N", "test": "oxygen consumption, Clark-type electrode", "type": "biochemical, Vreelandella boliviensis", "conditions": "2-OG fixed at 10 mM (5 mM in Methods), Fe(II), ascorbate, MOPS pH 7.2, 30 °C"}, "[4]": {"substrate": "O=C(O)CCC(=O)C(=O)O", "test": "oxygen consumption, Clark-type electrode", "type": "biochemical, Vreelandella boliviensis", "conditions": "methylguanidine fixed at 2.5 mM, Fe(II), ascorbate, MOPS pH 7.2, 30 °C"}},
  "data": [
    {"molecule": "N=C(N)N", "values": [
      {"measurement": "apparent KD", "setting": "[1]", "result": "93 ± 6", "unit": "µM"}
    ]},
    {"molecule": "N=C(N)NCO", "note": "[N-(hydroxymethyl)guanidine]", "values": [
      {"measurement": "LC-MS time course, coupled with MgdH", "setting": "MgdL", "result": "its presence clearly accelerated the fragmentation of N-(hydroxymethyl)guanidine"}
    ]},
    {"molecule": "CN(C)C(=N)N", "values": [
      {"measurement": "binding", "setting": "[1]; no conformational change, highest concentration not in material", "result": "no"}
    ]},
    {"molecule": "CNC(=N)N", "values": [
      {"measurement": "apparent KD", "setting": "[1]", "result": "83 ± 5", "unit": "µM"}
    ]},
    {"molecule": "MgdH (Vreelandella boliviensis LC1) (protein, full length, N-terminal 6xHis tag with TEV site (cleavage not mentioned), expressed in E. coli BL21, 41 kDa) MSQASNDLRLADFQAIPVIDIGDLLSGDLNARKAVAEQLGRAAREVGFFQMVGHGINPSLRQGLINQAKRFFAQPTETKMERYIGLYHHHRGYVPPGEESPDPNNPDMKEAFDLAFELPSDDPDVLAGTALLGPNPWPALEGFRQPVAAYYDAAYQVGRALMGGFALALGHEESHFLHHVTKPPSQLRLIHYPYNPDAEDAQGIGAHTDYECFTLLLPTAPGLEVMNGAGEWIDVPFRDDALVVNIGDMLEIWSNGEFVATSHRVRKVKEERYSFPLFFACDYHTVVAPLPELVKRHGQAFYPPLKAGDHLYAQTIQTFNYLRERLARGEIALPDGAREVGSLGQHGKHKETP", "values": [
      {"measurement": "Km", "setting": "[2]", "result": "0.25 ± 0.01", "unit": "mM"},
      {"measurement": "kcat", "setting": "[2]", "result": "17.3 ± 0.2", "unit": "s⁻¹"},
      {"measurement": "Km", "setting": "[3]", "result": "0.16 ± 0.01", "unit": "mM"},
      {"measurement": "kcat", "setting": "[3]", "result": "19.6 ± 0.4", "unit": "s⁻¹"},
      {"measurement": "Km", "setting": "[4]", "result": "0.53 ± 0.05", "unit": "mM"},
      {"measurement": "kcat", "setting": "[4]", "result": "20.5 ± 0.5", "unit": "s⁻¹"}
    ]}
  ]
}
